From US20070219133A1 come the findings set out here.

The target in assay [1] is extracellular region of human F158 FcγRIIIa (human) (UniProt P08637). The assay can be described thus: SPR. (In general: SPR reads the build-up and loss of mass on a sensor chip optically.)
The target in assay [2] is His-tagged human V158 FcγRIIIa (immobilized on SPR chip) (human) (UniProt P08637). The assay can be described thus: SPR, His-tagged V158 FcγRIIIa immobilized.
Assay [3] deals with human FcγRIIIa on human PBMC effector cells (human) (UniProt P08637). Put plainly: cell-based or functional assay.
Assay [4] has as its target extracellular region of human V158 FcγRIIIa fused with GST (human) (UniProt P08637). The assay can be described thus: AlphaScreen competition. For orientation: Alpha assays give light when donor and acceptor beads are brought close together.
The target of assay [5] is extracellular region of human F158 FcγRIIIa (human) (UniProt P08637). The assay can be described thus: AlphaScreen competition.
Assay [6] addresses extracellular region of human FcγRIIb (human) (UniProt P31994). Put plainly: AlphaScreen competition, trastuzumab context.
Assay [7] shares this target. Put plainly: AlphaScreen competition.

Sequence of extracellular region of human F158 FcγRIIIa (human) (P08637 17-208): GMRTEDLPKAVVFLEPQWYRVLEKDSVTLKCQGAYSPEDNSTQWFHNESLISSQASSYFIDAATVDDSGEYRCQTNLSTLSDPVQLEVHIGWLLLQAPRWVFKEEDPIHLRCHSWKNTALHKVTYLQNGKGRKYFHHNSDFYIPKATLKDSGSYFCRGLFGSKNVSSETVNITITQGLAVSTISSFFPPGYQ
Sequence of extracellular region of human FcγRIIb (human) (P31994 43-217): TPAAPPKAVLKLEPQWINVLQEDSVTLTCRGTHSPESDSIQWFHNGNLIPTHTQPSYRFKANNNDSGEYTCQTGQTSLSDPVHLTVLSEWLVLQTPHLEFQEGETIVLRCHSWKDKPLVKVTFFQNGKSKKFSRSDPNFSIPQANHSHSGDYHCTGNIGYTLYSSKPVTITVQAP
Sequence of extracellular region of human V158 FcγRIIIa fused with GST (human) (P08637 17-208 F176V): as the sequence (P08637 17-208) above, with F160V counted along it
Sequence of His-tagged human V158 FcγRIIIa (immobilized on SPR chip) (human) (P08637 17-208 F176V limits assumed): as the sequence (P08637 17-208) above, with F160V counted along it

As usually defined, the Kd is a measure of binding affinity in units of concentration. Read a high Kd as weaker binding. Regarding alemtuzumab Fc variant I332E (antibody), the Kd in assay [1] stood at 72 nM; in assay [2] it was 31 nM.

In assay [3], “alemtuzumab Fc variant S239D/I332E (antibody)” showed an ADCC EC50 (ng/ml), DoHH-2 targets, PBMCs heterozygous V158/F158 FcγRIIIa of 3 ng/mL and an ADCC Fold Improvement Over WT of 3.3 fold. The substance further had a FcγRIIIa Fold in assay [4] of 56.1 fold vs WT. With alemtuzumab Fc variant S298A (antibody), the Kd in assay [1] stood at 285 nM; in assay [2], 52 nM.

In the case of “alemtuzumab Fc variant S298A/E333A/K334A (antibody)”, the values for the Kd in assay [1] and in assay [2] were 156 nM and 39 nM, respectively.

Regarding alemtuzumab Fc variant V264I (antibody), the Kd was determined as 550 nM in assay [1] and 64 nM in assay [2]. As a reminder, the IC50 is the point on the concentration scale where inhibition reaches its midpoint. For the substance “alemtuzumab Fc variant V264I/I332E (antibody)”, in assay [1], the Fold amounted to 14 fold vs WT and the Kd came to 52 nM. Further, in assay [3], the ADCC EC50 (ng/ml), DoHH-2 targets, PBMCs heterozygous V158/F158 FcγRIIIa is 4 ng/mL and the ADCC Fold Improvement Over WT is 2.5 fold. Besides, in assay [4], the FcγRIIIa Fold stood at 12.5 fold vs WT, the Fold was 12.8 fold vs WT and the IC50 came to 0.5 nM. For the same substance, in assay [5], the Fold came to 15.6 fold vs WT and the IC50 was 1.1 nM. In assay [2], this substance registered a Fold of 4 fold vs WT and a Kd of 17 nM. On to alemtuzumab Fc variant W313F (antibody), for which the FcγRIIIa Fold in assay [4] was 0.88 fold vs WT. As for trastuzumab Fc variant E233D (antibody), the FcγRIIIa Fold in assay [4] amounted to 0.85 fold vs WT.

As for trastuzumab Fc variant E272Y (antibody), in assay [4], the FcγRIIIa Fold was determined as 8.7 fold vs WT. Same read-out and setting: with trastuzumab Fc variant E283R (antibody) the figure was 0.67 fold vs WT; with trastuzumab Fc variant E318R (antibody), 1.06 fold vs WT. trastuzumab Fc variant E333H (antibody) returned a FcγRIIIa Fold in assay [4] of 0.75 fold vs WT.

With trastuzumab Fc variant E333T (antibody), the FcγRIIIa Fold in assay [4] came out at 0.78 fold vs WT. On the same count and under the same terms, with trastuzumab Fc variant F275W (antibody) the figure was 1.11 fold vs WT; with trastuzumab Fc variant K274E (antibody), 6.11 fold vs WT; with trastuzumab Fc variant K274L (antibody), 1.09 fold vs WT. The same measure, in the same setting: to trastuzumab Fc variant K274R (antibody) belongs 1.41 fold vs WT; to trastuzumab Fc variant K274T (antibody), 1.41 fold vs WT. In assay [4], trastuzumab Fc variant K274Y (antibody) registered a FcγRIIIa Fold of 1.06 fold vs WT.

In assay [4], trastuzumab Fc variant K326I (antibody) displayed a FcγRIIIa Fold of 1.43 fold vs WT.

In the case of trastuzumab Fc variant K326T (antibody), the FcγRIIIa Fold in assay [4] stood at 1.88 fold vs WT. For the substance “trastuzumab Fc variant L234I/L235D (antibody)”, the FcγRIIIa Fold in assay [4] is 0.07 fold vs WT.

As to trastuzumab Fc variant N276E (antibody), the FcγRIIIa Fold in assay [4] is 0.87 fold vs WT. trastuzumab Fc variant N276R (antibody): the FcγRIIIa Fold in assay [4] is 0.66 fold vs WT. Same read-out and setting: with trastuzumab Fc variant N276S (antibody) the figure was 0.41 fold vs WT; with trastuzumab Fc variant N276Y (antibody), 0.56 fold vs WT; with trastuzumab Fc variant P230A (antibody), 1.09 fold vs WT. In the case of “trastuzumab Fc variant P230A/E233D (antibody)”, the FcγRIIIa Fold in assay [4] was 0.92 fold vs WT. The same measure, in the same setting: with “trastuzumab Fc variant P230A/E233D/I332E (antibody)” the figure was 1.87 fold vs WT. The substance trastuzumab Fc variant S239D (antibody) registered a FcγRIIb Fold in assay [6] of 4.47 fold vs WT. In turn, “trastuzumab Fc variant S239D/A330Y/I332E/K326E (antibody)” yielded a FcγRIIIa Fold in assay [4] of 64.1 fold vs WT.

On to “trastuzumab Fc variant S239D/A330Y/I332E/L234I (antibody)”, for which, in assay [4], the FcγRIIIa Fold came to 22.4 fold vs WT. On the same count and under the same terms, with “trastuzumab Fc variant S239D/A330Y/I332E/L235D (antibody)” the figure was 7.04 fold vs WT; with “trastuzumab Fc variant S239D/A330Y/I332E/V240I (antibody)”, 28 fold vs WT.

“trastuzumab Fc variant S239D/A330Y/I332E/V264T (antibody)” displayed a FcγRIIIa Fold in assay [4] of 17.7 fold vs WT. “trastuzumab Fc variant S239D/I332E (antibody)” displayed a FcγRIIb Fold in assay [6] of 19.7 fold vs WT. In turn, “trastuzumab Fc variant S239D/I332E/A330I (antibody)” returned a FcγRIIIa Fold in assay [4] of 59.1 fold vs WT. Take “trastuzumab Fc variant S239D/V264I/I332E (antibody)”: the FcγRIIIa Fold in assay [4] was determined as 36.6 fold vs WT. For the same substance, the FcγRIIb Fold in assay [7] was 14.4 fold vs WT. The substance “trastuzumab Fc variant S239N/A330L/I332E (antibody)” had a FcγRIIIa Fold in assay [4] of 12.9 fold vs WT. Still for that read-out and setting: with “trastuzumab Fc variant S239N/A330Y/I332E (antibody)” the figure was 14.2 fold vs WT. In the case of “trastuzumab Fc variant S239N/S298A/I332E (antibody)”, the FcγRIIIa Fold in assay [4] is 32.1 fold vs WT. This substance also registered a FcγRIIb Fold in assay [7] of 5.15 fold vs WT. Consider trastuzumab Fc variant S324I (antibody), for which, in assay [4], the FcγRIIIa Fold is 1.15 fold vs WT.

Regarding trastuzumab Fc variant S324R (antibody), in assay [4], the FcγRIIIa Fold stood at 0.71 fold vs WT. In turn, trastuzumab Fc variant S324V (antibody) came in with a FcγRIIIa Fold in assay [4] of 117 fold vs WT. Still for that read-out and setting: to trastuzumab Fc variant S324Y (antibody) belongs 0.98 fold vs WT; to trastuzumab Fc variant T335D (antibody), 2.79 fold vs WT. In assay [4], trastuzumab Fc variant T335R (antibody) had a FcγRIIIa Fold of 2.58 fold vs WT. Same read-out and setting: to trastuzumab Fc variant T335Y (antibody) belongs 1.56 fold vs WT. Same read-out and setting: with “trastuzumab Fc variant V240I/V266I (antibody)” the figure was 1.72 fold vs WT. On the same count and under the same terms, with “trastuzumab Fc variant V264I/S298A/I332E (antibody)” the figure was 16.5 fold vs WT.

For the substance trastuzumab Fc variant V273I (antibody), the FcγRIIIa Fold in assay [4] turned out to be 0.79 fold vs WT. Take trastuzumab Fc variant V302I (antibody): in assay [4], the FcγRIIIa Fold was 1.01 fold vs WT. Same read-out and setting: with trastuzumab Fc variant V323I (antibody) the figure was 0.83 fold vs WT; with trastuzumab Fc variant Y278E (antibody), 0.9 fold vs WT. On the same count and under the same terms, to trastuzumab Fc variant Y278T (antibody) belongs 1.87 fold vs WT; to trastuzumab Fc variant Y278W (antibody), 0.41 fold vs WT. With “wild type alemtuzumab (Campath), IgG1, expressed in 293T cells (antibody)”, the Kd in assay [1] came to 730 nM; in assay [2], 68 nM. The same substance returned an ADCC EC50 (ng/ml), DoHH-2 targets, PBMCs heterozygous V158/F158 FcγRIIIa in assay [3] of 9.9 ng/mL.
